T1: Subtilisin-309 variant Subtilisin-309-M222C-SM (M222C chemically modified with MMTS) (Lederbergia lenta, UniProt P29600, M216C)
T1 construct: made in house
T1 sequence (P29600 1-269 M216C): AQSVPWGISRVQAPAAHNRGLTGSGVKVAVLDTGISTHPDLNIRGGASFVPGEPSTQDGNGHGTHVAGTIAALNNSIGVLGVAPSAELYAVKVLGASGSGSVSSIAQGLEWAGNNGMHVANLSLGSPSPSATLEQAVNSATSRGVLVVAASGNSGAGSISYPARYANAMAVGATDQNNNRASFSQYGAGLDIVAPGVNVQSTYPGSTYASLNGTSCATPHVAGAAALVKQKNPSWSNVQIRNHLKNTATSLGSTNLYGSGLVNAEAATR

T2: Subtilisin-309 variant Subtilisin-309-M222C (Lederbergia lenta, UniProt P29600, M216C)
T2 construct: made in house
T2 sequence (P29600 1-269 M216C): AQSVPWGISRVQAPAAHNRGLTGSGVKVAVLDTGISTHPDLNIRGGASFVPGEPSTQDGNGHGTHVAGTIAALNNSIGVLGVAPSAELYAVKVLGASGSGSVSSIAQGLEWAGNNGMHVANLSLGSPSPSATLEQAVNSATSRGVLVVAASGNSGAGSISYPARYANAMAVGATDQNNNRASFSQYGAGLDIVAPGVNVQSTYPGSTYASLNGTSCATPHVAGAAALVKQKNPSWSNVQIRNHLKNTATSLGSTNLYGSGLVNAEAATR


Tests used:
Assay type in all cases: biochemical
[1] = biological target: T1, Subtilisin-309 variant Subtilisin-309-M222C-SM (M222C chemically modified with MMTS); experiment: Titration of the enzyme with phenyl-Hg-Cl; conditions: excess of phenyl-Hg-Cl relative to enzyme of 2.5
Description: (§1) As a further control, the enzyme was titrated with phenyl-Hg-Cl. When subtilisin-309-M222C is modified with phenyl-Hg-Cl, the activity decreases. When the ratio phenyl-Hg-Cl/WT exceeds 1, the activity constantly remains 10% of the activity of the non-modified enzyme, corresponding to 1 group per enzyme being modified.

[2] = biological target: T2, Subtilisin-309 variant Subtilisin-309-M222C; experiment: Titration of the enzyme with phenyl-Hg-Cl; conditions: ratio phenyl-Hg-Cl/enzyme exceeds 1
Description: as §1

[3] = substrate: C[C@H](NC(=O)CCC(=O)O)C(=O)N[C@@H](C)C(=O)N1CCC[C@H]1C(=O)N[C@@H](Cc1ccccc1)C(=O)Nc1ccc([N+](=O)[O-])cc1; experiment: Kinetic characterization, cleavage of Suc-Ala-Ala-Pro-Phe-pNA monitored at 410 nm; conditions: other: 50 mM Bicine, 2 mM CaCl2, 0.1 M KCl, pH 8.5, 25° C., substrate 0.2 to 6.5 mM
Description: The proteolytic activity can be monitored spectrophotometrically at 25° C., following the degradation of the peptide substrates Suc-Ala-Ala-Pro-Phe-pNA (Suc=Succinyl and pNA=p-nitro-anilid) or DMC (dimethyl-casein), and subsequent calculation of the kinetic parameters kcat. and KM.
For kinetic characterization, the savinase enzymes were assayed in:
50 μl X mM Suc-Ala-Ala-Pro-Phe-pNA in DMF
wherein the cleavage of substrate between Phe and pNA (p-nitro-anilid) is monitored spectrophotometrically at 410 nm, Δε=8500M^-1 cm^-1. The enzymatic concentrations are determined from the absorption at 280 nm, using Δε28 determined from the amino acid composition, Δε280 =23217M^-1 cm^-1.
The kinetic parameters kcat and KM are determined from a direct fit of the initial velocities at 7 concentrations of substrate to the Michaelis Menten equation. The […], X, is varied from 4 to 131 mM, so that the concentration of the substrate in assay varies from 0.2 to 6.5 mM. Thus selected around the KM value of the enzymes.

Molecule | activity change on reaction with phenyl-Hg-Cl [1] | activity remaining, of the activity of the non-modified enzyme [2] [%] | Km [3] [µM] | kcat [3] [s⁻¹] | kcat/Km [3] [S^-1 mM^-1]
[Cl][Hg][c]1ccccc1 [phenyl-Hg-Cl] | no activity change is observed | 10 | – | – | –
Subtilisin-309 (wild type) (Lederbergia lenta) (protein) AQSVPWGISRVQAPAAHNRGLTGSGVKVAVLDTGISTHPDLNIRGGASFVPGEPSTQDGNGHGTHVAGTIAALNNSIGVLGVAPSAELYAVKVLGASGSGSVSSIAQGLEWAGNNGMHVANLSLGSPSPSATLEQAVNSATSRGVLVVAASGNSGAGSISYPARYANAMAVGATDQNNNRASFSQYGAGLDIVAPGVNVQSTYPGSTYASLNGTSMATPHVAGAAALVKQKNPSWSNVQIRNHLKNTATSLGSTNLYGSGLVNAEAATR | – | – | 1760 | 91.2 ± 1.0 | 52
Subtilisin-309 variant Subtilisin-309-M222C (Lederbergia lenta; M216C) (protein, made in house) AQSVPWGISRVQAPAAHNRGLTGSGVKVAVLDTGISTHPDLNIRGGASFVPGEPSTQDGNGHGTHVAGTIAALNNSIGVLGVAPSAELYAVKVLGASGSGSVSSIAQGLEWAGNNGMHVANLSLGSPSPSATLEQAVNSATSRGVLVVAASGNSGAGSISYPARYANAMAVGATDQNNNRASFSQYGAGLDIVAPGVNVQSTYPGSTYASLNGTSCATPHVAGAAALVKQKNPSWSNVQIRNHLKNTATSLGSTNLYGSGLVNAEAATR | – | – | 1820 | 43.2 ± 0.03 | 23.8
